Reference: US20260071199A1 (JENTHERA THERAPEUTICS, published 2026)

molecular target: T1, CD4 on CD4+ T cells (Jurkat CD4+ T cells; human primary CD4+ T cells) (human, UniProt P01730 26-458); experiment: flow cytometry, TAMRA-labelled nuclease, 1 h on Jurkat CD4+ T cells
T1 construct: whole, on cells; also called CD4 receptor

| Binder | delivery (percent of cells TAMRA-positive) [%] |
| --- | --- |
| modified nuclease L1 (other) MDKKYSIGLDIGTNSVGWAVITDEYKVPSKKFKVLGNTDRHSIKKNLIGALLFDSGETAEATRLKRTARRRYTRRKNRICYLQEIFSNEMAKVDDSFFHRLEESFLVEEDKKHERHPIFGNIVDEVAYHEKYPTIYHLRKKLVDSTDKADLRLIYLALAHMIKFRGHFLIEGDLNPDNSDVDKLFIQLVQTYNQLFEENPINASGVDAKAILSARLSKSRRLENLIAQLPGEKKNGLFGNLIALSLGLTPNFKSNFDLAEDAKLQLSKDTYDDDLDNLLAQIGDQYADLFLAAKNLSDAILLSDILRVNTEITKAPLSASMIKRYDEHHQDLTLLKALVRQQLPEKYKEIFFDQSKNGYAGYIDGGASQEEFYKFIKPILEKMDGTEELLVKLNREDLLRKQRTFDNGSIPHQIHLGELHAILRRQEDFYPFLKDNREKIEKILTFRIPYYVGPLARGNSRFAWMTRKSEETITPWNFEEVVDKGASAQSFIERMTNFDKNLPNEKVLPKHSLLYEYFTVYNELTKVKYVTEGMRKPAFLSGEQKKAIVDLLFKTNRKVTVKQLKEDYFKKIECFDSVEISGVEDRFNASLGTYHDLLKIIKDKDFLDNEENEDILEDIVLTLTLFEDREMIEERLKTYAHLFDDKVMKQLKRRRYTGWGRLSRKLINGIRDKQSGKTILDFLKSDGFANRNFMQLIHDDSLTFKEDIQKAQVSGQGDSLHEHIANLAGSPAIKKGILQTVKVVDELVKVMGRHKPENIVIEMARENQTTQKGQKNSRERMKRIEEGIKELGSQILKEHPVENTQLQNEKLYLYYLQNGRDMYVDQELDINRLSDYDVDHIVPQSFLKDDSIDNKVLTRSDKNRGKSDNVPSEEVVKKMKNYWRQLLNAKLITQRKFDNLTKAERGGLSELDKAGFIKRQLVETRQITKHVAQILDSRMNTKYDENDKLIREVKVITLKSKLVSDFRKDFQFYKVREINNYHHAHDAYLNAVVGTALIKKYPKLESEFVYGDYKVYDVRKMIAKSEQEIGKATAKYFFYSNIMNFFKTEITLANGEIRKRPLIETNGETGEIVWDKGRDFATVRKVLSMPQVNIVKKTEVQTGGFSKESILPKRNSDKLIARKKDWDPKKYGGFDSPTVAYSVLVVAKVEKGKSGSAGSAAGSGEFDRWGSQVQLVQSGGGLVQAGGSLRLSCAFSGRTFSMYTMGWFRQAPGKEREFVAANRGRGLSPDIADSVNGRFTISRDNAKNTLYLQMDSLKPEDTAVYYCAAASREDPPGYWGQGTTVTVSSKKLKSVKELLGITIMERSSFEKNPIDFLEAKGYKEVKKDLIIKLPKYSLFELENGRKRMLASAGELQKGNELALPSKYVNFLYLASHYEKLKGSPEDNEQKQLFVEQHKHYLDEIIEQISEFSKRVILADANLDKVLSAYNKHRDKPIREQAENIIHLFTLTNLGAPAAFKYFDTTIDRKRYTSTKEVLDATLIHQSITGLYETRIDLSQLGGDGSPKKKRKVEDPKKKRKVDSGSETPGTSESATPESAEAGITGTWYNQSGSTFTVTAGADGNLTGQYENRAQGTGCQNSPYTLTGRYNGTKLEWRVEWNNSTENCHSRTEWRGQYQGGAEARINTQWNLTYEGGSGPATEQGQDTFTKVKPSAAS | > 99 |
| modified nuclease L2 (other) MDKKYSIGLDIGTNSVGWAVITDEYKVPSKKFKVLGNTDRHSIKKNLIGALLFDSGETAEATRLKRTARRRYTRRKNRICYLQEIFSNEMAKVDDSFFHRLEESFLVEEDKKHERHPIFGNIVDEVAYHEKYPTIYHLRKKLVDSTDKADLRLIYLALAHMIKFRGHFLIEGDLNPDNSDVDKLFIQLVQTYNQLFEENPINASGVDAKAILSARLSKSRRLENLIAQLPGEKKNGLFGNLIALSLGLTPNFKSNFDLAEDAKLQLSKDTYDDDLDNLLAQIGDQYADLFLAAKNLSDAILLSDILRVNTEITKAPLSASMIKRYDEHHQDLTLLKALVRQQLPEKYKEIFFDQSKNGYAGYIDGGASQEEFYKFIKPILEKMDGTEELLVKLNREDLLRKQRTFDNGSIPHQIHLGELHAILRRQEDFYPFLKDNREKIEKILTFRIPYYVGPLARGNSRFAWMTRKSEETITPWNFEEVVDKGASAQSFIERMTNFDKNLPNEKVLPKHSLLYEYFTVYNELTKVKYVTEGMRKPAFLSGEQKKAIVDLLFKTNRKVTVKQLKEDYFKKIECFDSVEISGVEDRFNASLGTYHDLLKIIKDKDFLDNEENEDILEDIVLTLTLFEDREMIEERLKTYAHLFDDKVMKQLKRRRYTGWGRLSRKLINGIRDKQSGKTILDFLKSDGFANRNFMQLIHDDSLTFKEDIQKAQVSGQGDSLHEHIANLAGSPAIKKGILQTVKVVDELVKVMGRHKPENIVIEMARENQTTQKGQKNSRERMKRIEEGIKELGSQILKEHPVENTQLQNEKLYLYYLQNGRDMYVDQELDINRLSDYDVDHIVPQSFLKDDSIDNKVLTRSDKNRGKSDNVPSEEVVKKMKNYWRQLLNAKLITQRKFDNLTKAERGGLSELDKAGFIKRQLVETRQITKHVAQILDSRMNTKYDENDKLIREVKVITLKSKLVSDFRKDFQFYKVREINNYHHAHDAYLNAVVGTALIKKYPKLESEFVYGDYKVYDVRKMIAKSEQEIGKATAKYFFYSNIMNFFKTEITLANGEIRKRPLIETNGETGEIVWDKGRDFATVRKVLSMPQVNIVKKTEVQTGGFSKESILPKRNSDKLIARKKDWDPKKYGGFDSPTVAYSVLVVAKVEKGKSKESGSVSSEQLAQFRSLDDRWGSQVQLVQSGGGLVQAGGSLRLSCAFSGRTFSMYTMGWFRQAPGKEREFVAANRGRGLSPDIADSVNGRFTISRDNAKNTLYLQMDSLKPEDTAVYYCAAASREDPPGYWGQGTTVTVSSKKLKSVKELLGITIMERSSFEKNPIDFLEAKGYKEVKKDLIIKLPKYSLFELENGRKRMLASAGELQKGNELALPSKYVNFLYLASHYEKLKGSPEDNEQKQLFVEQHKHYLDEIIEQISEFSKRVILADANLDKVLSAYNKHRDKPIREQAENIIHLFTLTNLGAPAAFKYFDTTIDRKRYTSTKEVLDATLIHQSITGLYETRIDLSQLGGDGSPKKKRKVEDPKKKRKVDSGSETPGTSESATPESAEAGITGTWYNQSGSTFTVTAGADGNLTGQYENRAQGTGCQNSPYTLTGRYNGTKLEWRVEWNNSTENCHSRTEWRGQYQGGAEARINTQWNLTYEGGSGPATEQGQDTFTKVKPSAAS | > 99 |
| modified nuclease Zero (other) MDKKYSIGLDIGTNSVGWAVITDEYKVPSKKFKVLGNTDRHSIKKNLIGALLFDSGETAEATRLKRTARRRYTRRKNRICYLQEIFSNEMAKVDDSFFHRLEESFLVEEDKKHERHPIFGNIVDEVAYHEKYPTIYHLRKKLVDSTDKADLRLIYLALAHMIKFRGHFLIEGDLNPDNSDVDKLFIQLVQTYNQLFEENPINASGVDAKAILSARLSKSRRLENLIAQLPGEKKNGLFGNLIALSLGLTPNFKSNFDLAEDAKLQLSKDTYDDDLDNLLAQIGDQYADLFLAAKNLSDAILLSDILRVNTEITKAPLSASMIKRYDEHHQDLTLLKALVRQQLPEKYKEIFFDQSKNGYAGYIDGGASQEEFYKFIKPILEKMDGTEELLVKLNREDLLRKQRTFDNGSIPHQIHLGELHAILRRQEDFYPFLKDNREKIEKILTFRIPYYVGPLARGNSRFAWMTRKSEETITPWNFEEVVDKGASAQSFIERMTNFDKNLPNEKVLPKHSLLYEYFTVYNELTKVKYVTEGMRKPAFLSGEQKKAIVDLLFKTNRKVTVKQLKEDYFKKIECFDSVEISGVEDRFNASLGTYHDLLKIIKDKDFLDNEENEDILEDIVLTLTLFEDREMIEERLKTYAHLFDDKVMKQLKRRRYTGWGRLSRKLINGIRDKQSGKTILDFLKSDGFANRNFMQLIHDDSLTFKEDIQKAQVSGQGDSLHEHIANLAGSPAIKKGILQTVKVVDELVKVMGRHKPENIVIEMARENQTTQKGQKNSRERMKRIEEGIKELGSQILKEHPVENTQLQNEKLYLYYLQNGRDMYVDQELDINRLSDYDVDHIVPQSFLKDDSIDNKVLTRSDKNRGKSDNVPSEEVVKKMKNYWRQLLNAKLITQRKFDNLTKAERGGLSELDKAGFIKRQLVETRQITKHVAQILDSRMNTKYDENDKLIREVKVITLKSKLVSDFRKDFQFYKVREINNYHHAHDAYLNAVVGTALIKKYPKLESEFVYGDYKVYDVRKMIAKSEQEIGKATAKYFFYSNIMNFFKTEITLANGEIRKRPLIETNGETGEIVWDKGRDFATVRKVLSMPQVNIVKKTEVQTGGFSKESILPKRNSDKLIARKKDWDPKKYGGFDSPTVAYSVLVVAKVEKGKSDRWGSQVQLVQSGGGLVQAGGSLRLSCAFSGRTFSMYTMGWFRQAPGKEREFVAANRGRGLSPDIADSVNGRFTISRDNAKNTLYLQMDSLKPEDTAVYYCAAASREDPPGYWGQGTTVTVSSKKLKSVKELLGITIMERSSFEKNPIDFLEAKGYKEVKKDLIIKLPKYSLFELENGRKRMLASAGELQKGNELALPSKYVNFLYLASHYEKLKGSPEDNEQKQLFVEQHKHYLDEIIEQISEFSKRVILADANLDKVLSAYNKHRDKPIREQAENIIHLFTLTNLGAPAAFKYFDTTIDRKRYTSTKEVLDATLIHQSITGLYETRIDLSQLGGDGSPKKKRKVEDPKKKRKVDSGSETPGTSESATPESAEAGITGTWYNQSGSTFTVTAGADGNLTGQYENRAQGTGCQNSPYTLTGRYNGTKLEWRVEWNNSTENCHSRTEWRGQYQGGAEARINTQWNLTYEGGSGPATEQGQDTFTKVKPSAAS | > 99 |
